In assay [1] the target is HLA-A*02:01. Nature of the assay: IEDB peptide-MHC binding, purified MHC/competitive/fluorescence; ≥ and ≤ were set here for values at or beyond the usual limits of such assays.
The target of assay [2] is HLA-B*15:01. Described as above.
Assay [3] concerns the target HLA-B*57:01. Nature of the assay: IEDB peptide-MHC binding, purified MHC/competitive/radioactivity; filed as Kd, often an IC50 or EC50 that approximates it; ≥ and ≤ were set here for values at or beyond the usual limits of such assays.
Assay [4] deals with HLA-A*02:03. Described as above. The conditions noted are these: source organism: Vaccinia virus WR.
For assay [5], the target named is HLA-B*51:01. The assay is described as above. The conditions noted are these: source organism: Vaccinia virus WR.
In assay [6] the target is HLA-B*35:01. The description is as above. To be noted: source organism: Vaccinia virus WR.
The target of assay [7] is HLA-B*54:01. The description is as above. The conditions noted are these: source organism: Vaccinia virus WR.
In assay [8] the target is HLA-B*07:02. The assay is described as above. To be noted: source organism: Vaccinia virus WR.
The target in assay [9] is HLA-A*02:02. Described as above. To be noted: source organism: Vaccinia virus WR.
The target of assay [10] is HLA-A*68:02. The assay is described as above. The conditions noted are these: source organism: Vaccinia virus WR.
Assay [11] concerns the target HLA-A*33:01. The assay is described as above. To be noted: source organism: Vaccinia virus WR.
Assay [12] addresses HLA-A*02:06. The description is as above. The conditions noted are these: source organism: Vaccinia virus WR.
For assay [13], the target named is HLA-B*53:01. The assay is described as above. To be noted: source organism: Vaccinia virus WR.
Assay [14] deals with HLA-A*02:03. Nature of the assay: IEDB peptide-MHC binding, purified MHC/competitive/fluorescence; filed as Kd, often an IC50 or EC50 that approximates it; ≥ and ≤ were set here for values at or beyond the usual limits of such assays.
Assay [15] has as its target HLA-B*39:01. The assay is described as above. To be noted: source organism: Cryptosporidium parvum Iowa II.
In assay [16] the target is HLA-B*46:01. The assay is described as above. The conditions noted are these: source organism: Cryptosporidium parvum Iowa II.
Assay [17] concerns the target HLA-B*57:01. Described as above. The conditions noted are these: source organism: Cryptosporidium parvum Iowa II.
The target of assay [18] is HLA-A*68:02. The description is as above. To be noted: source organism: Cryptosporidium parvum Iowa II.
Assay [19] has as its target HLA-B*27:03. The description is as above. To be noted: source organism: Cryptosporidium parvum Iowa II.
Assay [20] has as its target HLA-A*26:01. The assay is described as above. To be noted: source organism: Cryptosporidium parvum Iowa II.
The target in assay [21] is HLA-B*18:01. The description is as above. The conditions noted are these: source organism: Cryptosporidium parvum Iowa II.
The target in assay [22] is HLA-A*03:01. The assay is described as above. The conditions noted are these: source organism: Cryptosporidium parvum Iowa II.
The target in assay [23] is HLA-B*15:01. The assay is described as above. The conditions noted are these: source organism: Cryptosporidium parvum Iowa II.
Assay [24] addresses HLA-A*11:01. Nature of the assay: IEDB peptide-MHC binding, purified MHC/competitive/fluorescence; ≥ and ≤ were set here for values at or beyond the usual limits of such assays.
Assay [25] addresses HLA-A*24:02. Described as above.
Assay [26] deals with HLA-A*03:01. The assay is described as above.
For assay [27], the target named is HLA-A*02:01. Kind of assay: IEDB peptide-MHC binding, purified MHC/competitive/fluorescence; filed as Kd, often an IC50 or EC50 that approximates it; ≥ and ≤ were set here for values at or beyond the usual limits of such assays. To be noted: source organism: Homo sapiens.
Assay [28] addresses HLA-A*69:01. The description is as above. The conditions noted are these: source organism: Homo sapiens.
The target of assay [29] is HLA-A*01:01. Nature of the assay: IEDB peptide-MHC binding, purified MHC/direct/fluorescence; filed as Kd, often an IC50 or EC50 that approximates it; ≥ and ≤ were set here for values at or beyond the usual limits of such assays. The conditions noted are these: source organism: Giardia lamblia ATCC 50803.
Assay [30] deals with HLA-A*29:02. The assay is described as above. To be noted: source organism: Giardia lamblia ATCC 50803.
Assay [31] concerns the target HLA-A*11:01. Nature of the assay: IEDB peptide-MHC binding, purified MHC/competitive/radioactivity; filed as Kd, often an IC50 or EC50 that approximates it; ≥ and ≤ were set here for values at or beyond the usual limits of such assays. To be noted: source organism: Vaccinia virus WR.
The target of assay [32] is HLA-A*68:01. Described as above. The conditions noted are these: source organism: Vaccinia virus WR.
The target in assay [33] is HLA-A*02:01. Described as above. The conditions noted are these: source organism: Vaccinia virus WR.
The target in assay [34] is HLA-A*03:01. The description is as above. To be noted: source organism: Vaccinia virus WR.
Assay [35] has as its target HLA-A*31:01. The assay is described as above. To be noted: source organism: Vaccinia virus WR.
Setting [36] is: source organism: Vaccinia virus.
Where [37] appears, read: source organism: Zaire ebolavirus.
Setting [38] is: source organism: Sudan ebolavirus.
[39] abbreviates: source organism: Dengue virus 1 Brazil/97-11/1997.

The IC50 is the concentration at which inhibition is half-maximal. Low readings indicate greater potency, high ones weaker potency. With MMIQTRAAD, the figures for the 50% inhibitory concentration (IC50) in assay [1] (setting [36]) and in assay [2] (setting [36]) were at least 104 µM and at least 77.2 µM, respectively.

SQGREAAVS came in with an IC50 in assay [2] (setting [37]) of 26.9 µM.

As a reminder, the Kd is the equilibrium constant for the complex coming apart. With TTRLENVMW, in [3] (source organism: Dengue virus 4 Dominica/814669/1981), the Kd was determined as 0.0146 µM.

For the sequence LLTACTIFYI, the Kd is 0.0118 µM in assay [4]; at least 69.6 µM in [5]; at least 69.9 µM in assay [6]; at least 27.6 µM in [7]; at least 69.6 µM in assay [8]; 0.00272 µM in assay [9]. Moreover, the Kd was 0.229 µM in assay [10], 7.39 µM in assay [11], 0.0558 µM in assay [12] and at least 22.1 µM in assay [13].

Take KSWLVHWSL: the Kd in assay [14] (source organism: Cryptosporidium parvum Iowa II) was at least 20 µM; in assay [15] it was at least 20 µM; in [16], at least 20 µM; in assay [17], 0.0328 µM; in assay [18], at least 20 µM; in [19], at least 20 µM. Also, the Kd in assay [20], in assay [21], in assay [22] and in assay [23] was at least 20 µM each time.

For SSYYATSYL, the IC50 was 2.7 µM in assay [24] (setting [38]); 3.16 µM in assay [1] (setting [38]); 0.955 µM in assay [25] (setting [38]); 18.5 µM in assay [26] (setting [38]); 24.2 µM in [2] (setting [38]).

In the case of TTSQKTTWLP, the Kd in assay [3] (setting [39]) is 0.446 µM.

In assay [2] (setting [38]), TIIGTNGNH registered an IC50 of at least 150 µM.

With VVRLLTKPW, the Kd in assay [3] (source organism: Dengue virus 2 Jamaica/1409/1983) was 0.0279 µM.

For KNKLYLVDY, the half-maximal inhibitory concentration (IC50) in [2] (source organism: Vaccinia virus WR) worked out at 34.2 µM.

As to TTRMENLLW, in [3] (source organism: Dengue virus 3 Martinique/1243/1999), the Kd amounted to 0.00523 µM.

For the sequence IALGVATAH, the IC50 is 10.8 µM in assay [24] (setting [37]), at least 223 µM in assay [1] (setting [37]), at least 160 µM in assay [26] (setting [37]) and 61.1 µM in assay [2] (setting [37]).

As for SQIPSSSPT, the results for the IC50 in [1] (setting [38]) and in assay [2] (setting [38]) were 30 µM and 8.51 µM, respectively.

For LMLCLHHAY, the IC50 in assay [1] (setting [37]) was 38.1 µM; in assay [2] (setting [37]) it was 22.3 µM.

In the case of IRVEGNLRV, the Kd in assay [14] (source organism: Homo sapiens), in assay [27] and in assay [28] was at least 20 µM in each case.

As to KFMAILQHH, the IC50 in assay [25] (setting [37]) is 16.6 µM; in assay [26] (setting [37]), at least 301 µM; in assay [2] (setting [37]) it was at least 327 µM.

In the case of LTAHYCFLY, the dissociation constant (Kd) is 0.007 µM in assay [29] and at most 0.001 µM in assay [30].

Regarding EVVMAYVGIK, the Kd in assay [4] was 15.9 µM; in assay [5], at least 23.2 µM; in assay [6] it was at least 23.3 µM; in assay [7], 7.93 µM; in [8] it was 9.98 µM; in assay [31], 0.0977 µM. Moreover, the Kd in [9] is 12 µM; in assay [10], 2.58 µM; in [32], 0.00668 µM; in assay [33] it was 4 µM; in [11], 1.17 µM; in [12] it was 15 µM. Moreover, the dissociation constant Kd in assay [34] was found to be 0.413 µM; in assay [35] it was 0.786 µM; in [13], 6.77 µM.

Take GTSGSPIVNR: the Kd in assay [3] (setting [39]) was 0.104 µM.

For the sequence FASGRKSITL, the Kd in assay [3] (source organism: Dengue virus 4 Philippines/H241/1956) is 6.17 µM.
